Results as given in patent publication US20240067738A1 (ELANCO US, published 2024).

Experiments:
[1] = biological target: Equine IL4R-ECD_C-HuFc_His6 (processed) (equine); assay: Western blot, non-reducing
[2] = biological target: Murine IL4R-ECD_C-HuFc_His6 (processed) (murine); assay: Western blot, non-reducing
[3] = biological target: Human IL4R-ECD_C-HuFc_His6 (processed) (human); assay: Western blot, non-reducing
[4] = biological target: T1, Canine/Human IL4R-ECD_C-HuFc_His6 Hybrid 1 (canine/human hybrid); assay: Western blot, non-reducing
T1 construct: Canine G1-N55, human N56-H209, human Fc-His6; Tested as 3-fold concentrated 293 supernatant

[5] = biological target: T2, Canine/Human IL4R-ECD_C-HuFc_His6 Hybrid 6 (canine/human hybrid); assay: Western blot, non-reducing
T2 construct: Canine G1-N55 and P110-P204; human N56-H109

[6] = biological target: T3, Canine/Human IL4R-ECD_C-HuFc_His6 Hybrid 13 (canine/human hybrid); assay: Western blot, non-reducing
T3 construct: Canine G1-S89 and P110-P204; human G90-H109

[7] = biological target: Feline IL4R-ECD_C-HuFc_His6 (processed) (feline); assay: BLI (Octet), biotinylated feline IL4R-ECD_C-HuFc_His6 on streptavidin tips, antibody 25 µg/mL, 1:1 fit
Procedure: This finding was consistent with in vitro binding affinity measured by Octet Biosensor. Biotinylated feline IL4R-ECD_C-HuFc_His6 (SEQ ID NO: 111) was captured on streptavidin sensor tips. The association of Clone I antibody (25 μg/mL) and feline IL4R-ECD_C-HuFc_His6 was monitored for 600 seconds. Dissociation was monitored for 600 seconds. A buffer only blank curve was subtracted to correct for any drift. The data were fit to a 1:1 binding model using ForteBio™ data analysis software to determine the kₒₙ, koff, and the Kd. The buffer for dilutions and all binding steps was 20 mM phosphate, 150 mM NaCl, pH 7.2.

T2 sequence (chain, as listed by the source limits assumed): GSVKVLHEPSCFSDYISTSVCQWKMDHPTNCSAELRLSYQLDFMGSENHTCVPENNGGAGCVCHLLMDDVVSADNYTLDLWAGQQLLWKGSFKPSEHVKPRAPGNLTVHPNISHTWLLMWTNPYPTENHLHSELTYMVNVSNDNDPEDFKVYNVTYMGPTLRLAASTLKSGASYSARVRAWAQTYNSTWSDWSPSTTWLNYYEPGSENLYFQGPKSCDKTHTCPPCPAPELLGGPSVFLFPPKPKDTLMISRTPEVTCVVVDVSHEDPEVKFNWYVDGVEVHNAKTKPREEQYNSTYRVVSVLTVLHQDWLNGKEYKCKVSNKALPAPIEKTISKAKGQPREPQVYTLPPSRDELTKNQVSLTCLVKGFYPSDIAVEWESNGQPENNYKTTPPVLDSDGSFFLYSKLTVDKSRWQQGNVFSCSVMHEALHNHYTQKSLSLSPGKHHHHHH
T1 sequence (chain, as listed by the source limits assumed): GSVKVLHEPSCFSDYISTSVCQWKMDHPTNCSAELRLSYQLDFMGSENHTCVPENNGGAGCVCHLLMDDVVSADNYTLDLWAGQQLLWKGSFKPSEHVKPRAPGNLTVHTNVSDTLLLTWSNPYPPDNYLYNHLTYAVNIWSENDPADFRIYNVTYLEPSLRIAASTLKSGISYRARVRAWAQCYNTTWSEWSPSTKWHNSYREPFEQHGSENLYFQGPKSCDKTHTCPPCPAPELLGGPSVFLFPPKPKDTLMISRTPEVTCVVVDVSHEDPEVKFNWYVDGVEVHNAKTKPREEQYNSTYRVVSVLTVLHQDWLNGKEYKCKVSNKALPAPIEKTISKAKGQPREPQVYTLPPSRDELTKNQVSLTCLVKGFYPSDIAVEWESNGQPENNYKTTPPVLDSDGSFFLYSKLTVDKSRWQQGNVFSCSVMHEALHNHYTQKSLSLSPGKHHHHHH
T3 sequence (chain, as listed by the source limits assumed): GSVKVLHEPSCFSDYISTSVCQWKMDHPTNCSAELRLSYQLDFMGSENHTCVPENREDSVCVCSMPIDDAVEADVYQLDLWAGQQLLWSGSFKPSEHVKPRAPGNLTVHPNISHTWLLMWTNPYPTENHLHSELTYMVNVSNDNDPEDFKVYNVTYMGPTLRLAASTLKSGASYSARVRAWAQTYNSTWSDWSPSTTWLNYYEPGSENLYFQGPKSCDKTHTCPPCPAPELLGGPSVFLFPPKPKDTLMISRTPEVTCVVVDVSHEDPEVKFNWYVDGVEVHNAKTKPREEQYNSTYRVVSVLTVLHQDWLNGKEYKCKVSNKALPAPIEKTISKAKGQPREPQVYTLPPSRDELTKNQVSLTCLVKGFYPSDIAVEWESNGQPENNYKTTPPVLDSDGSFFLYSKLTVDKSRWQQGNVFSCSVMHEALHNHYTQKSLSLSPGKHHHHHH
Equine IL4R-ECD_C-HuFc_His6 (processed) (equine), sequence (chain, as listed by the source limits assumed): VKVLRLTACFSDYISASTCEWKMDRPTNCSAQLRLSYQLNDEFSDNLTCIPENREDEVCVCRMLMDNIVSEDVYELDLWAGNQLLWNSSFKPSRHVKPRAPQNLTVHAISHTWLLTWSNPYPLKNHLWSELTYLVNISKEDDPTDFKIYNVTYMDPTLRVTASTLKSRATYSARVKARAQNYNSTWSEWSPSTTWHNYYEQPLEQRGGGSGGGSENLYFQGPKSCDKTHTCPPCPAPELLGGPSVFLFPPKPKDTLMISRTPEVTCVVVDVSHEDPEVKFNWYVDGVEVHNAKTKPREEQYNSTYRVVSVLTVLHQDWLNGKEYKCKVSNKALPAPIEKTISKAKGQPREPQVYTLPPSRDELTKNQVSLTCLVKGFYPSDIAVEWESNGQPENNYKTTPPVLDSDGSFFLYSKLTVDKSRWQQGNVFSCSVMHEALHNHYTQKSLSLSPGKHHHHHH
Feline IL4R-ECD_C-HuFc_His6 (processed) (feline), sequence (chain, as listed by the source limits assumed): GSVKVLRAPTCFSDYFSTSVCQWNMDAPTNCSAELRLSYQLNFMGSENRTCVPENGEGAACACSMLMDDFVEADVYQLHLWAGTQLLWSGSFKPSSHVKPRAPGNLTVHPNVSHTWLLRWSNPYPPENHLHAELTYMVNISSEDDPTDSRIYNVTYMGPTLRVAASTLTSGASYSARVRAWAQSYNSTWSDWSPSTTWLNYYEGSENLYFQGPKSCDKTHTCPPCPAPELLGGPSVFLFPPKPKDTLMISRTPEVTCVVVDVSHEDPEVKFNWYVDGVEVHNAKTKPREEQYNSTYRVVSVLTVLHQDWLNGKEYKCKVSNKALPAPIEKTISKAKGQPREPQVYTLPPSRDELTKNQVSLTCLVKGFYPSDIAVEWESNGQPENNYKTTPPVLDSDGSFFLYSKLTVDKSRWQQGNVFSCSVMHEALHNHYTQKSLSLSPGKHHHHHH
Murine IL4R-ECD_C-HuFc_His6 (processed) (murine), sequence (chain, as listed by the source limits assumed): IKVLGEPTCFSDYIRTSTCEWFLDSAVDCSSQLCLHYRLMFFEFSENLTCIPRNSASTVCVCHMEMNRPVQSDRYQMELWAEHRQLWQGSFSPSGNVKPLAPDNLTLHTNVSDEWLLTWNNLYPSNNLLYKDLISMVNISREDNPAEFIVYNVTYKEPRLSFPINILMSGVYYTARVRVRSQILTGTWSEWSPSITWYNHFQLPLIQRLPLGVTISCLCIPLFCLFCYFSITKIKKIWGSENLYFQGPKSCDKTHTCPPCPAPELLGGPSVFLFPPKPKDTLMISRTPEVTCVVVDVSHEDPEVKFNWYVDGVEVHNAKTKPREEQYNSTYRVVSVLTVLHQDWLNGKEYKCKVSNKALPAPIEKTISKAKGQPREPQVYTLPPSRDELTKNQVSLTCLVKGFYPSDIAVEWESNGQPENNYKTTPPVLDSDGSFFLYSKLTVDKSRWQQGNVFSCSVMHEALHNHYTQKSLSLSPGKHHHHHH
Human IL4R-ECD_C-HuFc_His6 (processed) (human), sequence (chain, as listed by the source limits assumed): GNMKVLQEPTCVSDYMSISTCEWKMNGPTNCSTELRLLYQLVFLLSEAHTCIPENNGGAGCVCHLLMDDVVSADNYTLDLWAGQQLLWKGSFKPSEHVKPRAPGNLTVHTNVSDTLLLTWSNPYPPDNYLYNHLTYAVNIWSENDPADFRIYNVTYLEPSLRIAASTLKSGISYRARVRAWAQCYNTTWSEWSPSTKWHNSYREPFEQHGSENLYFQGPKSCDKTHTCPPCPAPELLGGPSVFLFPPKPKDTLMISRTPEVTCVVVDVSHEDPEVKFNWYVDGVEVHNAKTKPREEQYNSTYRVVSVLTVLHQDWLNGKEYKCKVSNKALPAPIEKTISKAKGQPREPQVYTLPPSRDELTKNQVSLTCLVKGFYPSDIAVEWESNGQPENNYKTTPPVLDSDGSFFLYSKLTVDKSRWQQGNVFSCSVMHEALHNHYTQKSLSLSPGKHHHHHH

binding result [4]: binds | binding result [5]: binds | binding result [6]: binds | Kd [7]: 1.1 nM
B1: Clone I mouse monoclonal antibody (antibody, mouse IgG1, kappa, V domains shown)
VH: EVQLQQSGPELVKPGASVKMSCKASGYTFTSYVMHWVKQKPGQGLEWIGYINPNNDGTFYNGKFKGKATLTSDKSSSTAYMELSSLTSEDSAVYYCAAFYYGFAYWGQGTLVTVSA
VL: DIVLTQSPSSLSASLGERVSLTCRASQEISGYLSWLQQKPDGTIKRLIYAASTLDSGVPKRFSGSRSGSDFSLTISSLESEDFADYYCLQYASYPWTFGGGAKLEIKR
notes: also called Clone I antibody; anti-IL4R-mAb Clone I
binding result [1]: no binding (tested: Clone I 0.3 µg/mL; 0.1 µg/lane) | binding result [2]: no binding (tested: Clone I 0.3 µg/mL; 0.1 µg/lane) | binding result [3]: no binding (tested: Clone I 0.3 µg/mL; 0.1 µg/lane)
